Laboratory results taken from paper PMC4187570, “Clathrin complexes with the inhibitor kappa B kinase signalosome: imaging the interactome” (Physiological Reports, 2014).

T1: IKKα (human (endogenous in A549), UniProt O15111 1-745)
T1 construct: also called CHUK; source: endogenous, A549 cells (M-PER lysate for the pull-down; fixed, permeabilised cells for FRET)
T1 sequence (looked up): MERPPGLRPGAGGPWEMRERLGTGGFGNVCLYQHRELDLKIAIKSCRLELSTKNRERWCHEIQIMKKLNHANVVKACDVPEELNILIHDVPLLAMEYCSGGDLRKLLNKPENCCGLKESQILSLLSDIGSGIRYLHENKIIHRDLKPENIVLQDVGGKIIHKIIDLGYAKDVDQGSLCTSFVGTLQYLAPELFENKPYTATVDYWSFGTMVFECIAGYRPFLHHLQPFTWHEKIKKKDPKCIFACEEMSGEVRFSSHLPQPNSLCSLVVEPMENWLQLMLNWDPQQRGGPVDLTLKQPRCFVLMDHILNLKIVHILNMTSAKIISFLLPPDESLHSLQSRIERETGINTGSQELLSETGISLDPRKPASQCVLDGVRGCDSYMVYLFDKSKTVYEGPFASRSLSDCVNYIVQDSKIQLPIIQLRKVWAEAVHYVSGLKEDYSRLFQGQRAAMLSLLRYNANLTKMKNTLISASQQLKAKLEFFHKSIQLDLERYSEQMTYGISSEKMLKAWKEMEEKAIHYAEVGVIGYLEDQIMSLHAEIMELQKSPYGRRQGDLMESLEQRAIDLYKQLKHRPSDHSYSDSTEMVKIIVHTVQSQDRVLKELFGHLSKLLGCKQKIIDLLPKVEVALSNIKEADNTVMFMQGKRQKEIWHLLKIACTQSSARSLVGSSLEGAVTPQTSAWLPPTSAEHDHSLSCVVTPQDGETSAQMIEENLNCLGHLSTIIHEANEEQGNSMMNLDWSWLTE

B1: clathrin heavy chain 1 (natural protein, human (endogenous in A549), UniProt Q00610 1-1675, looked up)
chain: MAQILPIRFQEHLQLQNLGINPANIGFSTLTMESDKFICIREKVGEQAQVVIIDMNDPSNPIRRPISADSAIMNPASKVIALKAGKTLQIFNIEMKSKMKAHTMTDDVTFWKWISLNTVALVTDNAVYHWSMEGESQPVKMFDRHSSLAGCQIINYRTDAKQKWLLLTGISAQQNRVVGAMQLYSVDRKVSQPIEGHAASFAQFKMEGNAEESTLFCFAVRGQAGGKLHIIEVGTPPTGNQPFPKKAVDVFFPPEAQNDFPVAMQISEKHDVVFLITKYGYIHLYDLETGTCIYMNRISGETIFVTAPHEATAGIIGVNRKGQVLSVCVEEENIIPYITNVLQNPDLALRMAVRNNLAGAEELFARKFNALFAQGNYSEAAKVAANAPKGILRTPDTIRRFQSVPAQPGQTSPLLQYFGILLDQGQLNKYESLELCRPVLQQGRKQLLEKWLKEDKLECSEELGDLVKSVDPTLALSVYLRANVPNKVIQCFAETGQVQKIVLYAKKVGYTPDWIFLLRNVMRISPDQGQQFAQMLVQDEEPLADITQIVDVFMEYNLIQQCTAFLLDALKNNRPSEGPLQTRLLEMNLMHAPQVADAILGNQMFTHYDRAHIAQLCEKAGLLQRALEHFTDLYDIKRAVVHTHLLNPEWLVNYFGSLSVEDSLECLRAMLSANIRQNLQICVQVASKYHEQLSTQSLIELFESFKSFEGLFYFLGSIVNFSQDPDVHFKYIQAACKTGQIKEVERICRESNCYDPERVKNFLKEAKLTDQLPLIIVCDRFDFVHDLVLYLYRNNLQKYIEIYVQKVNPSRLPVVIGGLLDVDCSEDVIKNLILVVRGQFSTDELVAEVEKRNRLKLLLPWLEARIHEGCEEPATHNALAKIYIDSNNNPERFLRENPYYDSRVVGKYCEKRDPHLACVAYERGQCDLELINVCNENSLFKSLSRYLVRRKDPELWGSVLLESNPYRRPLIDQVVQTALSETQDPEEVSVTVKAFMTADLPNELIELLEKIVLDNSVFSEHRNLQNLLILTAIKADRTRVMEYINRLDNYDAPDIANIAISNELFEEAFAIFRKFDVNTSAVQVLIEHIGNLDRAYEFAERCNEPAVWSQLAKAQLQKGMVKEAIDSYIKADDPSSYMEVVQAANTSGNWEELVKYLQMARKKARESYVETELIFALAKTNRLAELEEFINGPNNAHIQQVGDRCYDEKMYDAAKLLYNNVSNFGRLASTLVHLGEYQAAVDGARKANSTRTWKEVCFACVDGKEFRLAQMCGLHIVVHADELEELINYYQDRGYFEELITMLEAALGLERAHMGMFTELAILYSKFKPQKMREHLELFWSRVNIPKVLRAAEQAHLWAELVFLYDKYEEYDNAIITMMNHPTDAWKEGQFKDIITKVANVELYYRAIQFYLEFKPLLLNDLLMVLSPRLDHTRAVNYFSKVKQLPLVKPYLRSVQNHNNKSVNESLNNLFITEEDYQALRTSIDAYDNFDNISLAQRLEKHELIEFRRIAAYLFKGNNRWKQSVELCKKDSLYKDAMQYASESKDTELAEELLQWFLQEEKRECFGACLFTCYDLLRPDVVLETAWRHNIMDFAMPYFIQVMKEYLTKVDKLDASESLRKEEEQATETQPIVYGQPQLMLTAGPSVAVPPQAPFGYGYTAPPYGQPQPGFGYSM
notes: clathrin heavy chain 1 (CLTC), human, SwissProt entry name CLH1_HUMAN; also called CHC; CLH1; source: endogenous, A549 cells (M-PER lysate for the pull-down; fixed, permeabilised cells for FRET)
B2: IKKβ (natural protein, human (endogenous in A549), UniProt O14920 1-756, looked up)
chain: MSWSPSLTTQTCGAWEMKERLGTGGFGNVIRWHNQETGEQIAIKQCRQELSPRNRERWCLEIQIMRRLTHPNVVAARDVPEGMQNLAPNDLPLLAMEYCQGGDLRKYLNQFENCCGLREGAILTLLSDIASALRYLHENRIIHRDLKPENIVLQQGEQRLIHKIIDLGYAKELDQGSLCTSFVGTLQYLAPELLEQQKYTVTVDYWSFGTLAFECITGFRPFLPNWQPVQWHSKVRQKSEVDIVVSEDLNGTVKFSSSLPYPNNLNSVLAERLEKWLQLMLMWHPRQRGTDPTYGPNGCFKALDDILNLKLVHILNMVTGTIHTYPVTEDESLQSLKARIQQDTGIPEEDQELLQEAGLALIPDKPATQCISDGKLNEGHTLDMDLVFLFDNSKITYETQISPRPQPESVSCILQEPKRNLAFFQLRKVWGQVWHSIQTLKEDCNRLQQGQRAAMMNLLRNNSCLSKMKNSMASMSQQLKAKLDFFKTSIQIDLEKYSEQTEFGITSDKLLLAWREMEQAVELCGRENEVKLLVERMMALQTDIVDLQRSPMGRKQGGTLDDLEEQARELYRRLREKPRDQRTEGDSQEMVRLLLQAIQSFEKKVRVIYTQLSKTVVCKQKALELLPKVEEVVSLMNEDEKTVVRLQEKRQKELWNLLKIACSKVRGPVSGSPDSMNASRLSQPGQLMSQPSTASNSLPEPAKKSEELVAEAHNLCTLLENAIQDTVREQDQSFTALDWSWLQTEEEEHSCLEQAS
notes: also called IKBKB; source: endogenous, A549 cells (M-PER lysate for the pull-down; fixed, permeabilised cells for FRET)

Tests used:
Experiment in all cases: FRET or BRET; corrected FRET between fluorophore-labelled secondary antibodies (Alexa 488:Cy3, Cy3:Cy5) on primary antibodies, indirect immunofluorescence of acetone/methanol-fixed resting A549 cells, deconvolved Z-stacks; epitopes within about 30 nm; FRETN = cFRET normalised to the acceptor's emission, mean of four sets of experiments
[1] = target: IKKα (human (endogenous in A549)) (UniProt O15111)
[2] = target: IKKβ (human (endogenous in A549)) (UniProt O14920)
IKKβ = target: B2; details: partners not purified
IKKα = target: T1, IKKα; details: partners not purified

normalized FRET (FRETN) [1]	normalized FRET (FRETN) [2]	normalized FRET (FRETN) (IKKβ)	normalized FRET (FRETN) (IKKα)	Molecule
0.3	0.632	–	–	heat-shock protein-90 (from UniProt P07900 1-732) (natural protein)
–	–	0.522	0.7	B1
–	–	–	0.362	B2
